Assay results as given in ChEMBL document CHEMBL5678797, “AZD7762, a novel checkpoint kinase inhibitor, drives checkpoint abrogation and potentiates DNA-targeted therapies” (Mol Cancer Ther, 2008).

Substrate: NC(=O)Nc1cc(-c2cccc(F)c2)sc1C(=O)N[C@H]1CCCNC1
Conditions: Homo sapiens; Insect cell; time 20.0 min

B1: Serine/threonine-protein kinase Chk1 (Homo sapiens), O14757 (protein)
chain: MAVPFVEDWDLVQTLGEGAYGEVQLAVNRVTEEAVAVKIVDMKRAVDCPENIKKEICINKMLNHENVVKFYGHRREGNIQYLFLEYCSGGELFDRIEPDIGMPEPDAQRFFHQLMAGVVYLHGIGITHRDIKPENLLLDERDNLKISDFGLATVFRYNNRERLLNKMCGTLPYVAPELLKRREFHAEPVDVWSCGIVLTAMLAGELPWDQPSDSCQEYSDWKEKKTYLNPWKKIDSAPLALLHKILVENPSARITIPDIKKDRWYNKPLKKGAKRPRVTSGGVSESPSGFSKHIQSNLDFSPVNSASSEENVKYSSSQPEPRTGLSLWDTSPSYIDKLVQGISFSQPTCPDHMLLNSQLLGTPGSSQNPWQRLVKRMTRFFTKLDADKSYQCLKETCEKLGYQWKKSCMNQVTISTTDRRNNKLIFKVNLLEMDDKILVDFRLSKGDGLEFKRHFLKIKGKLIDIVSSQKIWLPAT
  Km: 80 µM
